Measured values reported in article PMC10397247.
Blank lines part the entries; values can stand above or below the binder they belong to.

Key:
Assay in all cases: two-hybrid library CCmax;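 note: natural log of median RNA to DNA barcode read ratio; higher means stronger binding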
[1] = molecular target: T1, 4H2947-AA; conditions: mean of both orientations
T1 chain: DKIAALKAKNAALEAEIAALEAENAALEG

[2] = molecular target: T2, 4H3915-AA; conditions: mean of both orientations
T2 chain: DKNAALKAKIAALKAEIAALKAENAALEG

[3] = molecular target: T3, P6-AA-12HAA-E; conditions: mean of both orientations
T3 chain: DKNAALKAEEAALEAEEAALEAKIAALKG

[4] = molecular target: T4, P6-AA-12HAA-D; conditions: mean of both orientations
T4 chain: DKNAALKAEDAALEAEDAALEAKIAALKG

[5] = molecular target: T5, P5-AA-1HAA-T
T5 chain: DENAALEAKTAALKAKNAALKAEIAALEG

[6] = molecular target: T6, P5-AA-1HAA-V; conditions: mean of both orientations
T6 chain: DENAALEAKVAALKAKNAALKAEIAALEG

[7] = molecular target: T7, P5-AA-1HAA-Y; conditions: mean of both orientations
T7 chain: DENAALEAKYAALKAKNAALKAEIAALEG

[8] = molecular target: T8, P5-AA-1HAA-S; conditions: mean of both orientations
T8 chain: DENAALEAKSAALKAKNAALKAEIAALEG

[9] = molecular target: T9, P5-AA-12HGe-E; conditions: mean of both orientations
T9 chain: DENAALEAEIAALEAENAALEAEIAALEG

[10] = molecular target: T10, P5-AA-1HAA-E; conditions: mean of both orientations
T10 chain: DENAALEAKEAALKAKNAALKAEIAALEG

[11] = molecular target: T11, 4H1324-AA; conditions: mean of both orientations
T11 chain: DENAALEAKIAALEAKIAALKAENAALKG

[12] = molecular target: T12, 4H1446-AA; conditions: mean of both orientations
T12 chain: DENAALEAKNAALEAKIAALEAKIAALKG

[13] = molecular target: T13, 4H2898-AA; conditions: mean of both orientations
T13 chain: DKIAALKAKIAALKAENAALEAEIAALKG

[14] = molecular target: T14, 4H2600-AA; conditions: mean of both orientations
T14 chain: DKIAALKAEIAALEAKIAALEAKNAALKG

[15] = molecular target: T15, 4H4033-AA; conditions: mean of both orientations
T15 chain: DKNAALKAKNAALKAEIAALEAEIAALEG

[16] = molecular target: T16, 4H2187-AA; conditions: mean of both orientations
T16 chain: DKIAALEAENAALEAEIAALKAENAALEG

[17] = molecular target: T17, 4H2758-AA; conditions: mean of both orientations
T17 chain: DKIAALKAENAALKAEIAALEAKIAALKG

[18] = molecular target: T18, 4H2608-AA; conditions: mean of both orientations
T18 chain: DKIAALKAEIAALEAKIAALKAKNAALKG

[19] = molecular target: T19, 4H3134-AA; conditions: mean of both orientations
T19 chain: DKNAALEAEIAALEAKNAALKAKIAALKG

[20] = molecular target: T20, 4H55-AA; conditions: mean of both orientations
T20 chain: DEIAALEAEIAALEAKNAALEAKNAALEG

[21] = molecular target: T21, 4H2513-AA; conditions: mean of both orientations
T21 chain: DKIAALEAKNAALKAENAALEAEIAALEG

[22] = molecular target: T22, 4H87-AA; conditions: mean of both orientations
T22 chain: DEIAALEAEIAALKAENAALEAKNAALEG

[23] = molecular target: T23, 4H278-AA; conditions: mean of both orientations
T23 chain: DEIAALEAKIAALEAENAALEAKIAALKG

[24] = molecular target: T24, 4H390-AA; conditions: mean of both orientations
T24 chain: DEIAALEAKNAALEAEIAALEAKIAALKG

[25] = molecular target: T25, 4H3940-AA; conditions: mean of both orientations
T25 chain: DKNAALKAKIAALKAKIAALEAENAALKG

[26] = molecular target: T26, P6-AA-12HGe-T; conditions: mean of both orientations
T26 chain: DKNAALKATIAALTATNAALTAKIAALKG

[27] = molecular target: T27, P6-AA-1HAA-T; conditions: mean of both orientations
T27 chain: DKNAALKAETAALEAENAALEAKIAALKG

[28] = molecular target: T28, P6-AA-1HAA-E; conditions: mean of both orientations
T28 chain: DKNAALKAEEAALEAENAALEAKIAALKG

[29] = molecular target: T29, P6-AA-1HGe-R; conditions: mean of both orientations
T29 chain: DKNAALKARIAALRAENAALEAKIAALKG

[30] = molecular target: T30, P6-AA-12HGe-M; conditions: mean of both orientations
T30 chain: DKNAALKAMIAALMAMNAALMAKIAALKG

[31] = molecular target: T31, APC7099-AA; conditions: mean of both orientations
T31 chain: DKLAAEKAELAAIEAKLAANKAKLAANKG

[32] = molecular target: T32, APC4011-AA; conditions: mean of both orientations
T32 chain: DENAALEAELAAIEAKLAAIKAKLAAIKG

[33] = molecular target: T33, 4H733-AA; conditions: mean of both orientations
T33 chain: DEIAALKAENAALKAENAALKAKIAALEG

[34] = molecular target: T34, APC232-AA; conditions: mean of both orientations
T34 chain: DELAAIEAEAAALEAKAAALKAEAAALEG

[35] = molecular target: T35, APC9319-AA; conditions: mean of both orientations
T35 chain: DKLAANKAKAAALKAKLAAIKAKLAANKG

[36] = molecular target: T36, 4H807-AA; conditions: mean of both orientations
T36 chain: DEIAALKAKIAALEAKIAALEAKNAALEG

[37] = molecular target: T37, 4H1854-AA; conditions: mean of both orientations
T37 chain: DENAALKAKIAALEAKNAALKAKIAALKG

[38] = molecular target: T38, 4H2248-AA; conditions: mean of both orientations
T38 chain: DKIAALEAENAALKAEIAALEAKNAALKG

[39] = molecular target: T39, 4H391-AA; conditions: mean of both orientations
T39 chain: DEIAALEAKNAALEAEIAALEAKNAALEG

[40] = molecular target: T40, 4H1348-AA; conditions: mean of both orientations
T40 chain: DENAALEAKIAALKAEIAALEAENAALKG

[41] = molecular target: T41, 4H2713-AA; conditions: mean of both orientations
T41 chain: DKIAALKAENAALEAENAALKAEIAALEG

[42] = molecular target: T42, 4H3591-AA; conditions: mean of both orientations
T42 chain: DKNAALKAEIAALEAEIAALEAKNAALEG

B1: 4H249-AA (peptide)
chain: DEIAALEAENAALKAKNAALKAEIAALEG
- interaction score [1]: -1.55
- interaction score [2]: -0.705

B4: 4H1153-AA (peptide)
chain: DENAALEAENAALEAEIAALEAEIAALEG
- interaction score [11]: -0.874

B5: 4H1257-AA (peptide)
chain: DENAALEAENAALKAKIAALKAEIAALEG
- interaction score [12]: 0.0702
- interaction score [13]: -1.42
- interaction score [14]: 0.518

B6: 4H1350-AA (peptide)
chain: DENAALEAKIAALKAEIAALEAKIAALKG
- interaction score [15]: -0.0842
- interaction score [16]: -1.97
- interaction score [17]: -0.48
- interaction score [18]: 1.38
- interaction score [19]: 0.186
- interaction score [20]: -1.11
- interaction score [21]: -1.31
- interaction score [22]: -0.16
- interaction score [23]: 0.443
- interaction score [24]: 0.523
- interaction score [25]: -0.283

B9: 4H1064-AA (peptide)
chain: DENAALEAEIAALEAKIAALEAKNAALKG
- interaction score [37]: -1.4
- interaction score [38]: -1.34
- interaction score [39]: -1.37
- interaction score [40]: 1.13
- interaction score [41]: -1.48
- interaction score [42]: 0.232

Next, values leading:

- interaction score [3]: 2.36
- interaction score [4]: -1.1
B2: 4H1385-AA (peptide)
chain: DENAALEAKIAALKAKIAALKAEIAALEG

- interaction score [5]: 1.75
- interaction score [6]: 2.23
- interaction score [7]: 2.23
- interaction score [8]: 1.63
- interaction score [9]: 0.858
- interaction score [10]: 1.24
B3: 4H3606-AA (peptide)
chain: DKNAALKAEIAALEAENAALEAKIAALKG

- interaction score [26]: 0.16
- interaction score [27]: 1.96
- interaction score [28]: 2.01
- interaction score [29]: 1.53
- interaction score [30]: 0.2
B7: 4H1401-AA (peptide)
chain: DENAALEAKIAALKAKNAALKAEIAALEG

- interaction score [31]: -1.48
- interaction score [32]: -1.65
- interaction score [33]: -1.33
- interaction score [34]: -2.09
- interaction score [35]: -1.55
- interaction score [36]: -1.58
B8: 4H1845-AA (peptide)
chain: DENAALKAKIAALEAKNAALEAKIAALEG
